US20180214476

Test system: T1, thrombin cleavable peptide GGLVPRGSGGC
T1 sequence: GGLVPRGSGGC

thrombin
cleavage of the peptide by thrombin, LCMS analysis: the peptides were efficiently cleaved after 12 h incubation with 1 U mL^-1 thrombin in Tris buffer
